{"source": "paper PMC9552169", "about": "“Mutations Increasing Cofactor Affinity, Improve Stability and Activity of a Baeyer–Villiger Monooxygenase” (ACS Catalysis, 2022)", "tested_on": "O=C1CCCCC1", "experiment": "purified protein", "conditions": "table prints only 'substrate', cyclohexanone taken from the standard assay (Figure 2: 100 μM NADPH, 50 mM TrisHCl pH 8.5)"}
{"substance": "CHMOAcineto (CHMOwt) (Acinetobacter johnsonii)", "values": [{"measurement": "Km", "result": "6.7 ± 2.0", "unit": "µM"}]}
